Measurements taken from the supplement of paper PMC7125110.
± gives the standard error. Fewer inactive variants are shown than the library holds.

B1: glmS ribozyme (parent)
chain: AUAAAAGCGCCAGAACUACAGAAAUGUAGUUGACGAGGAGGAGGUUUAUCGAAUUUUCGGCGGAUGCCUCCAAA

What was measured:
Conditions in all cases: with glucosamine-6-phosphate
glucosamine-6-phosphate [1] = variants of: B1; assay: self-cleavage kobs at 40 uM GlcN6P; higher = faster cleavage; RNA array
Outline: (§1)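 Ribozyme variants carrying barcodes were transcribed in situ on sequenced MiSeq chips by E. coli RNA polymerase and tracked at 37 °C with a hybridised Cy3 probe. They were exposed to 40 μM to 10 mM glucosamine-6-phosphate in HEPES/KCl/Mg(OAc)2 buffer. kobs came from exponential decay fits of normalised per-tile medians, and kcat and KM from weighted Michaelis–Menten fits.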

glucosamine-6-phosphate [2] = variants of: B1; assay: self-cleavage kobs at 160 uM GlcN6P; higher = faster cleavage; RNA array
Outline: as §1

glucosamine-6-phosphate [3] = variants of: B1; assay: self-cleavage kobs at 640 uM GlcN6P; higher = faster cleavage; RNA array
Outline: as §1

glucosamine-6-phosphate [4] = variants of: B1; assay: self-cleavage kobs at 2500 uM GlcN6P; higher = faster cleavage; RNA array
Outline: as §1

glucosamine-6-phosphate [5] = variants of: B1; assay: self-cleavage kobs at 10000 uM GlcN6P; higher = faster cleavage; RNA array
Outline: as §1

| Variant | self-cleavage kobs at 40 uM GlcN6P (glucosamine-6-phosphate [1]) | self-cleavage kobs at 160 uM GlcN6P (glucosamine-6-phosphate [2]) | self-cleavage kobs at 640 uM GlcN6P (glucosamine-6-phosphate [3]) | self-cleavage kobs at 2500 uM GlcN6P (glucosamine-6-phosphate [4]) | self-cleavage kobs at 10000 uM GlcN6P (glucosamine-6-phosphate [5]) |
| --- | --- | --- | --- | --- | --- |
| AUAAAAGCGCCAGAAUUACAGAAAUGUAGUUGACGAGGAAGAGGUUUAUCGAAUUUUCGGCAGAUGCCACCAAA [C16U G40A G62A U69A] | < 1e-05 s⁻¹ |  |  |  |  |
| AUAAAACCGCCAUAACUACAGAAAUGUAGUUGGCGAGGAGGAGGGUUAUCGAAUUUUCGGCGGAUGCCUCCAAA [G7C G13U A33G U45G] | < 1e-05 s⁻¹ |  |  |  |  |
| AUAAAAGUGCCAGAACUACAGAAAUGUAGUUGCCGAGGAGGAGGUUUAUCGAAUUUUCGGCGGAUGCCUCAAAA [C8U A33C C71A] | < 1e-05 s⁻¹ |  |  |  |  |
| AUAAAAGCCCCAGAACUACAGAAAUGUAGUUGACGAGGAGGAGGUUUAUCGAAUUUUCGGCGCAUGCCUCCAAA [G9C G63C] | < 1e-05 s⁻¹ | < 1e-05 s⁻¹ | < 1e-05 s⁻¹ | < 1e-05 s⁻¹ |  |
| AUAAAAGCGCCAGAACUACAGAAAUGUAGUUGACGAGGAGGAGCUUUAUCGAAUUUUCGGCGGAUGACUCCAAA [G44C C67A] | 0.000178 ± 2.3e-05 s⁻¹ | 0.00032 ± 9e-05 s⁻¹ | 0.00196 ± 0.00037 s⁻¹ | 0.00486 ± 0.0014 s⁻¹ | 0.00668 ± 0.0019 s⁻¹ |
| AUAAAAGCGCCAGAACUACAGAAAUGUAGUUGACGAGGAGGAUGUUUAUCGAAUUUUCGGGGGAUGCCUCCAAA [G43U C61G] | < 1e-05 s⁻¹ |  | < 1e-05 s⁻¹ | < 1e-05 s⁻¹ | < 1e-05 s⁻¹ |
| AUAAAAGCGCCAGAACUACAGAAAUGUAGUUGCCGAGGAGGACGUUUAUCGAAUUUUAGGCGGAUGCCACCAAA [A33C G43C C58A U69A] | < 1e-05 s⁻¹ |  | < 1e-05 s⁻¹ |  | < 1e-05 s⁻¹ |
| AUAAAAGCGCCAGAUCUACAGAAAUGUAGUUGACGAGGAGGAGGUUUAUGGAAUUUUCGGCGGAUGCCUCCAAA [A15U C50G] | 3.42e-05 ± 8.1e-06 s⁻¹ | 8.86e-05 ± 1.4e-05 s⁻¹ | 0.000494 ± 0.00023 s⁻¹ | 7.94e-05 ± 1.4e-05 s⁻¹ |  |
| AUAAAAGCGCCCGAACUACAGAAUUGUAGUUGACGAGGAGGAGGUUUAUCGCAUUUUCGGCGGAUGACUCCAAA [A12C A24U A52C C67A] | < 1e-05 s⁻¹ |  |  |  |  |
| UGGAUCCAUAAAGAACUACAGAAAUGUAGUUGACGAGGAGGAGGUUUAUCGAAUUUUCGGCGGAUGCCUCCAAA [A1U U2G A3G A5U A6C G7C C8A G9U C10A C11A] | < 1e-05 s⁻¹ | < 1e-05 s⁻¹ | < 1e-05 s⁻¹ | < 1e-05 s⁻¹ | < 1e-05 s⁻¹ |
| AUAAAAGCGACAGAACUACAGAAAUGUAGUUGACGAGGAGGAGGUUGAUCGAAUUUUCGGCGAAUGCCUCCAAA [C10A U47G G63A] | < 1e-05 s⁻¹ |  |  |  | < 1e-05 s⁻¹ |
| AUAAAAGCGCCAGACCUACAGAAAUGUAGUUGACGAGGAAGAGGUUUAGCGAAUUUUCGGCGGAUGCCUCUAAA [A15C G40A U49G C71U] | < 1e-05 s⁻¹ |  |  |  | 4.71e-05 ± 1.3e-05 s⁻¹ |
| AUAAAAGCGCCAGACCUACAGAAAUGUAGAUGACGAGGAGCAGGAUUAUCGAAUUUUUGGCGGAUGCCUCCAAA [A15C U30A G41C U45A C58U] | < 1e-05 s⁻¹ |  |  |  |  |
| AUAAAACCGCCAGAACUACAGAAAUGUAGUUGACGAGGAGGAGGUUUAUCUAAUUUUCGGCGGAUGCCUCCAAA [G7C G51U] | < 1e-05 s⁻¹ | < 1e-05 s⁻¹ | < 1e-05 s⁻¹ | < 1e-05 s⁻¹ | < 1e-05 s⁻¹ |
